For 1 molecule, Kd results are on record in doi:10.1101/2025.09.10.672744, “UDP-glucose Activation of a G-protein/Sucrose Synthase Signaling Supercomplex” (bioRxiv, 2025).

Assay [1] deals with T1, His-SUS4 (Arabidopsis, UniProt Q9LXL5 1-808).
T1 construct: Gateway pDEST17 adds linker residues between the His tag and the protein; also called SUCROSE SYNTHASE 4; source: E. coli ArcticExpress RP, purified (Ni-NTA, Superdex 200 SEC); not shown: 6xHis, N-terminal, kept
The assay is described as follows: MST; sfGFP-RGS1(ΔC-tail) as the fluorescent target, His-SUS1 or His-SUS4 as ligands; NanoTemper Monolith NT.115. The note with it: both partners purified.

In assay [2] the target is T2, His-SUS1 (Arabidopsis, UniProt P49040 1-808).
T2 construct: Gateway pDEST17 adds linker residues between the His tag and the protein; also called SUCROSE SYNTHASE 1; source: E. coli ArcticExpress RP, purified (Ni-NTA, Superdex 200 SEC); not shown: 6xHis, N-terminal, kept
The assay is described as above. The note with it: both partners purified.

T2 sequence (P49040 whole entry): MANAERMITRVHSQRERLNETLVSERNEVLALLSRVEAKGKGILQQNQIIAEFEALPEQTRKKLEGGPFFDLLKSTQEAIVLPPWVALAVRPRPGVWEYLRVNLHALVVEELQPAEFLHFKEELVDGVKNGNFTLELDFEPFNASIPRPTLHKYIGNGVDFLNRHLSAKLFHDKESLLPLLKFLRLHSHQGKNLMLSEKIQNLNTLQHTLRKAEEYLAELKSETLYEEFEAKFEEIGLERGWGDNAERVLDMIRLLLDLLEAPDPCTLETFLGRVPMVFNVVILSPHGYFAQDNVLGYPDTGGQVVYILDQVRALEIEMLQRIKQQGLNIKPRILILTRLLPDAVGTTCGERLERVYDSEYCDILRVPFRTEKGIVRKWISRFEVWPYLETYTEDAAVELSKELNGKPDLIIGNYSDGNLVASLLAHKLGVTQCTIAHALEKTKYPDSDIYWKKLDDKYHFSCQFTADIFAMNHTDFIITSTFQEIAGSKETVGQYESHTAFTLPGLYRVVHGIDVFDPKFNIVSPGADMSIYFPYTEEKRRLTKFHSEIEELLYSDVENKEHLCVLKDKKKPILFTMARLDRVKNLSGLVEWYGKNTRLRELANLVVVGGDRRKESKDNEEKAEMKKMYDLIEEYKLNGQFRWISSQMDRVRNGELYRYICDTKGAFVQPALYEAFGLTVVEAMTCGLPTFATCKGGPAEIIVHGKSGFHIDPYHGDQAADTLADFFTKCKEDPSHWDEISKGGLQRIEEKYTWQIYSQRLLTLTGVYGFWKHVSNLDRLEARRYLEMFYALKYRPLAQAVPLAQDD
T1 sequence (Q9LXL5 whole entry): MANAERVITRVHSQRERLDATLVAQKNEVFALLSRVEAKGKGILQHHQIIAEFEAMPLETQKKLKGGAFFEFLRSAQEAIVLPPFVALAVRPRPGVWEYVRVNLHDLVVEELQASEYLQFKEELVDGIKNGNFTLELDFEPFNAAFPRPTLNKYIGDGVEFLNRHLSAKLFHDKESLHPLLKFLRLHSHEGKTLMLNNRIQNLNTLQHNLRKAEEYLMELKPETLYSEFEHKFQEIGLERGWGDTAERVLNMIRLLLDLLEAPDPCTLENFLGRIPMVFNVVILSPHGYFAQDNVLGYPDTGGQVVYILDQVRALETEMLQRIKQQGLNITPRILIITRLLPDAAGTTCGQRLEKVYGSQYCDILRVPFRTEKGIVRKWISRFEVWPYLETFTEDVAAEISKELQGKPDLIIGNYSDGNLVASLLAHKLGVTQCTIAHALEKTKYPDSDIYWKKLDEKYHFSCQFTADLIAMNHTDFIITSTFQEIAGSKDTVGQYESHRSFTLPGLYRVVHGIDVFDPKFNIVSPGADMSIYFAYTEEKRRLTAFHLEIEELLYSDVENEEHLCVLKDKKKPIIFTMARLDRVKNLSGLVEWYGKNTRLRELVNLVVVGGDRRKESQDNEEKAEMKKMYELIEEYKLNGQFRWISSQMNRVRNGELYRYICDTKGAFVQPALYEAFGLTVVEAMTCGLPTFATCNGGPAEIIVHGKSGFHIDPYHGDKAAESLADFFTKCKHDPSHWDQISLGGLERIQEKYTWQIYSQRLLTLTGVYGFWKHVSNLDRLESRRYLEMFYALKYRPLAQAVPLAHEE

B1: HA–Flag–10xHis–sfGFP–TEV–Optimized–RGS1(ΔC-tail) (domain or fragment)
chain: MASGCALHGGCPSDYVAVAISVICFFVLLSRSVLPCLIHKAPRTNSSSFWIPVIQVISSFNLLFSIMMSVNLLRFRTKHWWRYCYLWAVWIEGPLGFGLLMSCRITQAFQLYFIFVKKRLPPVKSYIFLPLVLLPWIFGAAIIHATKPLNDKCHMGLQWTFPVAGLHALYVLALIAFTRAVRHVEFRFDELRDLWKGILVSATSIVIWVTAFVLNEIHEEISWLQVASRFVLLVTGGILVVVFFSISSNQPLLSQISLKKRQNFEFQRMGQALGIPDSGLLFRKEEFRPVDPNEPLDKLLLNKRFRHSFMEFADSCYAGETLHFFEEVYEHGKIPEDDSIRRIYMARHIMEKFIVAGAEMELNLSHKTRQEILTTQDLTHTDLFKNALNEVMQLIKMNLVRDYWSSIYFIKFKEEESCHEAMHKEGY
In the case of B1, the Kd (commonly the constant that tells how readily two partners part at equilibrium) was 106 ± 3 nM in assay [1] and 161 ± 9 nM in assay [2].
